Holding throughout (conditions): 20 nM; 72 h
The subject of series [1] is MCF10A. The series is described as follows: percent viability (nuclei count relative to siNT); higher = more viable cells. How it is done:
(§1)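 After 72 h, cells were fixed and stained with Hoechst and anti-fibrillarin, and nucleoli per nucleus were counted with CellProfiler. Values are plate-adjusted percent effect for the one-nucleolus and 5+ nucleoli phenotypes, normalised to siNT (0%) and to the positive controls siNOL11 or siKIF11 (100%), as the mean of biological triplicates. Percent viability is the nuclei count relative to siNT.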

Series [2] deals with MCF10A. Description: 5+ nucleoli phenotype percent effect (relative to siNT 0% and siKIF11 100%); higher = more cells with five or more nucleoli. On the procedure:
as §1

The subject of series [3] is MCF10A. The series is described as follows: one-nucleolus phenotype percent effect (relative to siNT 0% and siNOL11 100%); higher = more cells with one nucleolus (ribosome biogenesis inhibition). On the procedure: as §1

Regarding “UGCAAAAGUAAUUGCAGUUUUUG [hsa-miR-548aj-5p]”, the percent viability with MCF10A [1] was 81.8%. In the series on MCF10A [2], the “5+ nucleoli phenotype percent effect” value was 4.35%. Besides, the “one-nucleolus phenotype percent effect” value in the series on MCF10A [3] is -16.2%.

With “UUUUGUGUCUCCCAUUCCCCAG [hsa-miR-5010-3p]”, the percent viability with MCF10A [1] was determined as 57.3%. Also, the “5+ nucleoli phenotype percent effect” value in the series with MCF10A [2] was -18.5%. Besides, the “one-nucleolus phenotype percent effect” value with MCF10A [3] is -9.03%.

With UCUGGCCAGCUACGUCCCCA [hsa-miR-3190-5p], in the series with MCF10A [1], the percent viability came out at 48.9%. Also, the “5+ nucleoli phenotype percent effect” value in the series on MCF10A [2] came out at 19.8%. Besides, the “one-nucleolus phenotype percent effect” value in the series with MCF10A [3] was -10.2%.

In the case of “UCCUUUGCCUAUUCUAUUUAAG [hsa-miR-3121-5p]”, the percent viability in the series on MCF10A [1] was found to be 56.5%. Further, the “5+ nucleoli phenotype percent effect” value with MCF10A [2] is 17%. Moreover, in the series with MCF10A [3], the “one-nucleolus phenotype percent effect” value is -3.46%.

For UUGUACAUGGUAGGCUUUCAUU [hsa-miR-493-5p], the percent viability in the series with MCF10A [1] came out at 81.7%. Moreover, the “5+ nucleoli phenotype percent effect” value in the series on MCF10A [2] was -9.79%. For the same sequence, the “one-nucleolus phenotype percent effect” value in the series with MCF10A [3] is 3.68%.

As to UGGGUUCCUGGCAUGCUGAUUU [hsa-miR-23b-5p], the percent viability with MCF10A [1] amounted to 59.2%. Besides, the “5+ nucleoli phenotype percent effect” value in the series on MCF10A [2] worked out at 1.4%. Besides, the “one-nucleolus phenotype percent effect” value in the series with MCF10A [3] is 2.38%.

For “GACAAUUGUUGAUCUUGGGCCU [hsa-miR-7849-3p]”, the percent viability with MCF10A [1] stood at 74.7%. The “5+ nucleoli phenotype percent effect” value in the series on MCF10A [2] is -19.1%. In addition, the “one-nucleolus phenotype percent effect” value in the series with MCF10A [3] was found to be 8.55%.

Take UCGUGCAUAUAUCUACCACAU [hsa-miR-4536-3p]: in the series with MCF10A [1], the percent viability was 49.3%. Besides, the “5+ nucleoli phenotype percent effect” value in the series with MCF10A [2] was found to be 0.0637%. Further, the “one-nucleolus phenotype percent effect” value with MCF10A [3] was found to be 2.78%.

As for “UUGUUCUUUGGUCUUUCAGCCA [hsa-miR-4677-5p]”, the percent viability in the series with MCF10A [1] came to 42.5%. In addition, the “5+ nucleoli phenotype percent effect” value in the series on MCF10A [2] was -26.7%. In the series with MCF10A [3], the “one-nucleolus phenotype percent effect” value was 20.3%.

For GAAAACGACAAUGACUUUUGCA [hsa-miR-548ad], the percent viability in the series with MCF10A [1] was 129%. Moreover, the “5+ nucleoli phenotype percent effect” value in the series with MCF10A [2] turned out to be 40.5%. In the series with MCF10A [3], the “one-nucleolus phenotype percent effect” value is -29.2%.

Regarding “AGGGGGGCACUGCGCAAGCAAAGCC [hsa-miR-6885-5p]”, in the series on MCF10A [1], the percent viability was found to be 42.5%. Further, in the series with MCF10A [2], the “5+ nucleoli phenotype percent effect” value was -29.8%. Also, in the series with MCF10A [3], the “one-nucleolus phenotype percent effect” value amounted to 16.6%.

GUUUGGACAUAGUGUGGCUGG [hsa-miR-7850-5p]: in the series on MCF10A [1], the percent viability was found to be 115%. Further, the “5+ nucleoli phenotype percent effect” value with MCF10A [2] was 49.1%. For the same sequence, in the series on MCF10A [3], the “one-nucleolus phenotype percent effect” value is -32.7%.

Turning to UGGGGCGGAGCUUCCGGAG [hsa-miR-3180], in the series with MCF10A [1], the percent viability was found to be 25.6%. In the series with MCF10A [2], the “5+ nucleoli phenotype percent effect” value was -11.7%. In addition, the “one-nucleolus phenotype percent effect” value in the series on MCF10A [3] turned out to be 10.4%.

As for AGCAGACUUGACCUACAAUUA [hsa-miR-4771], the percent viability with MCF10A [1] came to 53.6%. The “5+ nucleoli phenotype percent effect” value in the series with MCF10A [2] was determined as 3.81%. The “one-nucleolus phenotype percent effect” value in the series with MCF10A [3] is -9.9%.

For the sequence CAAAUAAUACCACAGUGGGUGU [hsa-miR-5692a], the percent viability with MCF10A [1] worked out at 105%. Moreover, the “5+ nucleoli phenotype percent effect” value with MCF10A [2] is 46.5%. The “one-nucleolus phenotype percent effect” value in the series on MCF10A [3] is -17.8%.

For CUGCCAGCCCCGUUCCAGGGCA [hsa-miR-3972], the percent viability in the series on MCF10A [1] was 42.9%. For the same sequence, in the series on MCF10A [2], the “5+ nucleoli phenotype percent effect” value is -1.63%. Further, the “one-nucleolus phenotype percent effect” value in the series with MCF10A [3] is -2.85%.

As to UACUUUUCUAGGUUGUUGGGG [hsa-miR-5003-3p], the percent viability with MCF10A [1] was found to be 24.9%. In the series on MCF10A [2], the “5+ nucleoli phenotype percent effect” value was -39.5%. Besides, in the series with MCF10A [3], the “one-nucleolus phenotype percent effect” value amounted to 55.6%.

As to CAAGGAGACGGGAACAUGGAGC [hsa-miR-4428], the percent viability with MCF10A [1] stood at 69.6%. In addition, the “5+ nucleoli phenotype percent effect” value with MCF10A [2] is 32.8%. Also, the “one-nucleolus phenotype percent effect” value with MCF10A [3] is -16.1%.

CAAUGUUUCCACAGUGCAUCAC [hsa-miR-33a-3p]: the percent viability in the series on MCF10A [1] came out at 51.1%. Further, the “5+ nucleoli phenotype percent effect” value with MCF10A [2] is 2.57%. Moreover, the “one-nucleolus phenotype percent effect” value in the series with MCF10A [3] was -10.4%.

Take “UGCCCUGCCUGUUUUCUCCUUU [hsa-miR-3173-5p]”: the percent viability with MCF10A [1] amounted to 148%. The “5+ nucleoli phenotype percent effect” value in the series with MCF10A [2] amounted to 35.2%. For the same sequence, in the series on MCF10A [3], the “one-nucleolus phenotype percent effect” value is -24.3%.

With GUAGCACCUUGCAGGAUAAGGU [hsa-miR-5682], the percent viability in the series with MCF10A [1] worked out at 72.9%. The “5+ nucleoli phenotype percent effect” value in the series with MCF10A [2] was 12.2%. For the same sequence, the “one-nucleolus phenotype percent effect” value with MCF10A [3] was -21.5%.

On to UUUGUUCGUUCGGCUCGCGUGA [hsa-miR-375], for which the percent viability with MCF10A [1] stood at 59.7%. For the same sequence, in the series on MCF10A [2], the “5+ nucleoli phenotype percent effect” value amounted to 5.82%. The “one-nucleolus phenotype percent effect” value with MCF10A [3] was 0.601%.

On to CAACAAAUCACAGUCUGCCAUA [hsa-miR-7-1-3p], for which, in the series with MCF10A [1], the percent viability amounted to 98.9%. Moreover, the “5+ nucleoli phenotype percent effect” value in the series with MCF10A [2] worked out at 23.6%. Further, the “one-nucleolus phenotype percent effect” value in the series on MCF10A [3] was -2.83%.

For the sequence UUCAAGUAAUCCAGGAUAGGCU [hsa-miR-26a-5p], the percent viability in the series on MCF10A [1] was determined as 103%. The “5+ nucleoli phenotype percent effect” value in the series on MCF10A [2] amounted to 17.8%. The “one-nucleolus phenotype percent effect” value in the series on MCF10A [3] is -6.05%.
